Source: US20260209386A1 (MYTHIC THERAPEUTICS, published 2026)

T1: Human PTK7 Protein, His Tag, Acro Biosystems (human, UniProt Q13308 31-704)
T1 construct: Bought recombinant protein; also called CCK4; not shown: His tag
T1 sequence: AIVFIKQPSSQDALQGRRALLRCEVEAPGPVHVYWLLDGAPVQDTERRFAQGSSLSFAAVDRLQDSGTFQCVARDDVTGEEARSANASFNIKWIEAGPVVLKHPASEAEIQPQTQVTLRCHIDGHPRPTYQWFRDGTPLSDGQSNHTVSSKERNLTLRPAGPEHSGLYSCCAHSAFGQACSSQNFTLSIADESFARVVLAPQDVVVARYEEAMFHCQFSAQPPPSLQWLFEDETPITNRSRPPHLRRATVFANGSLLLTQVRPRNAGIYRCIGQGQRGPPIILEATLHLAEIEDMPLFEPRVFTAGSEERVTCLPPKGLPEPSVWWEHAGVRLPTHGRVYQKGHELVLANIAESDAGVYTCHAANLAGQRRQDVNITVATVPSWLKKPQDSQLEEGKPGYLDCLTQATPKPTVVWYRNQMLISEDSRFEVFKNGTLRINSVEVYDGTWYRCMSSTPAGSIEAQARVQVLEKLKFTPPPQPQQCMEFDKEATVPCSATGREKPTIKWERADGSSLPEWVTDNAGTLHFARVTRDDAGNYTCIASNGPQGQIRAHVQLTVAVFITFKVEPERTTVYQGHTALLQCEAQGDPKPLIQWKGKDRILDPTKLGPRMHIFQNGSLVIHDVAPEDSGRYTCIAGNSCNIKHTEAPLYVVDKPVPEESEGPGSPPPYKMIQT

T2: Human PTK7 Protein, His Tag (Acro Biosystems) (human, UniProt Q13308 31-704)
T2 construct: Bought His-tagged protein; also called CCK4; not shown: His tag
T2 sequence: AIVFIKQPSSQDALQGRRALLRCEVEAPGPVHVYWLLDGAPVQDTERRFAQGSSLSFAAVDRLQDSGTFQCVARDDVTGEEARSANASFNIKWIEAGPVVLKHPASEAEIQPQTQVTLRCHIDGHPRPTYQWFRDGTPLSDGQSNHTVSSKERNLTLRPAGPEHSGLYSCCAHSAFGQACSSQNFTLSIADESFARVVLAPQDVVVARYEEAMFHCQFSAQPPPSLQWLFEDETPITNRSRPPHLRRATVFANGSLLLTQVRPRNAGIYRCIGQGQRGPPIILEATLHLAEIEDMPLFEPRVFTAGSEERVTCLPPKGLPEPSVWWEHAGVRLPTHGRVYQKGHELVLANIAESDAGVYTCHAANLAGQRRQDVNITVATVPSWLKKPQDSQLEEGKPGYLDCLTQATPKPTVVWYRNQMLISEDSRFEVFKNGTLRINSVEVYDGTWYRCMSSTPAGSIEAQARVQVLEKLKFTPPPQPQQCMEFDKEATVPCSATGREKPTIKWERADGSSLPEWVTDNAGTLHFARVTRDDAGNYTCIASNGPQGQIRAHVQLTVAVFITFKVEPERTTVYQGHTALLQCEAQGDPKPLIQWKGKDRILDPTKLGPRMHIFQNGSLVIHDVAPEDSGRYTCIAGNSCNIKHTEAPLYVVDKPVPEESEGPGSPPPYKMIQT

B1: MYT11258 (antibody, V domains shown)
VH: EVQLVESGGGLVQPGGSLRLSCTASGIDLHRYSMGWVRQAPGKGLEWVGIISYGGSTYYASWAKGRFTISRDTSKNTVYLQMNSLRAEDTAVYFCARVGYPGYSGYGYAFDAFDPWGQGTLVTVSS
VL: EIVMTQSPSTLSASVGDRVIITCQSSKSVYNDNWLSWYQQKPGKAPKLLIYGASTLASGVPSRFSGSGSGAEFTLTISSLQPDDFATYYCAGGYSSSSDNGFGQGTKLTVL
notes: MYT9792 variant, His at VH 30 (H1 05)
B2: MYT11285 (antibody, V domains shown)
VH: EVQLVESGGGLVQPGGSLRLSCTASGIDLSRYSMGWVRQAPGKGLEWVGIISYGGSTYYASWAKGRFTISRDTSKNTVYLQMNSLRAEDTAVYFCARVGYHGYSGYGYAFDAFDPWGQGTLVTVSS
VL: EIVMTQSPSTLSASVGDRVIITCQSSKSVYNDNWLSWYQQKPGKAPKLLIYGASTLASGVPSRFSGSGSGAEFTLTISSLQPDDFATYYCAGGYSSSSDNGFGQGTKLTVL
notes: MYT9792 variant, His at VH 101 (H3 06)
B3: MYT11289 (antibody, V domains shown)
VH: EVQLVESGGGLVQPGGSLRLSCTASGIDLSRYSMGWVRQAPGKGLEWVGIISYGGSTYYASWAKGRFTISRDTSKNTVYLQMNSLRAEDTAVYFCARVGYPGYSHYGYAFDAFDPWGQGTLVTVSS
VL: EIVMTQSPSTLSASVGDRVIITCQSSKSVYNDNWLSWYQQKPGKAPKLLIYGASTLASGVPSRFSGSGSGAEFTLTISSLQPDDFATYYCAGGYSSSSDNGFGQGTKLTVL
B4: MYT11279 (antibody, V domains shown)
VH: EVQLVESGGGLVQPGGSLRLSCTASGIDLSRYSMGWVRQAPGKGLEWVGIISYGGSTYYASWAKHRFTISRDTSKNTVYLQMNSLRAEDTAVYFCARVGYPGYSGYGYAFDAFDPWGQGTLVTVSS
VL: EIVMTQSPSTLSASVGDRVIITCQSSKSVYNDNWLSWYQQKPGKAPKLLIYGASTLASGVPSRFSGSGSGAEFTLTISSLQPDDFATYYCAGGYSSSSDNGFGQGTKLTVL
notes: MYT9792 variant, His at VH 65 (H2 16)
B5: MYT11309 (antibody, V domains shown)
VH: EVQLVESGGGLVQPGGSLRLSCTASGIDLSRYSMGWVRQAPGKGLEWVGIISYGGSTYYASWAKGRFTISRDTSKNTVYLQMNSLRAEDTAVYFCARVGYPGYSGYGYAFDAFDPWGQGTLVTVSS
VL: EIVMTQSPSTLSASVGDRVIITCQSSKSHYNDNWLSWYQQKPGKAPKLLIYGASTLASGVPSRFSGSGSGAEFTLTISSLQPDDFATYYCAGGYSSSSDNGFGQGTKLTVL
notes: MYT9792 variant, His at VL 29 (L1 06)
B6: MYT11267 (antibody, V domains shown)
VH: EVQLVESGGGLVQPGGSLRLSCTASGIDLSRYSMGWVRQAPGKGLEWVGIISHGGSTYYASWAKGRFTISRDTSKNTVYLQMNSLRAEDTAVYFCARVGYPGYSGYGYAFDAFDPWGQGTLVTVSS
VL: EIVMTQSPSTLSASVGDRVIITCQSSKSVYNDNWLSWYQQKPGKAPKLLIYGASTLASGVPSRFSGSGSGAEFTLTISSLQPDDFATYYCAGGYSSSSDNGFGQGTKLTVL
notes: MYT9792 variant, His at VH 53 (H2 04)
B7: MYT11272 (antibody, V domains shown)
VH: EVQLVESGGGLVQPGGSLRLSCTASGIDLSRYSMGWVRQAPGKGLEWVGIISYGGSTHYASWAKGRFTISRDTSKNTVYLQMNSLRAEDTAVYFCARVGYPGYSGYGYAFDAFDPWGQGTLVTVSS
VL: EIVMTQSPSTLSASVGDRVIITCQSSKSVYNDNWLSWYQQKPGKAPKLLIYGASTLASGVPSRFSGSGSGAEFTLTISSLQPDDFATYYCAGGYSSSSDNGFGQGTKLTVL
notes: MYT9792 variant, His at VH 58 (H2 09)
B8: MYT11263 (antibody, V domains shown)
VH: EVQLVESGGGLVQPGGSLRLSCTASGIDLSRYSMHWVRQAPGKGLEWVGIISYGGSTYYASWAKGRFTISRDTSKNTVYLQMNSLRAEDTAVYFCARVGYPGYSGYGYAFDAFDPWGQGTLVTVSS
VL: EIVMTQSPSTLSASVGDRVIITCQSSKSVYNDNWLSWYQQKPGKAPKLLIYGASTLASGVPSRFSGSGSGAEFTLTISSLQPDDFATYYCAGGYSSSSDNGFGQGTKLTVL
notes: MYT9792 variant, His at VH 35 (H1 10)
B9: MYT11322 (antibody, V domains shown)
VH: EVQLVESGGGLVQPGGSLRLSCTASGIDLSRYSMGWVRQAPGKGLEWVGIISYGGSTYYASWAKGRFTISRDTSKNTVYLQMNSLRAEDTAVYFCARVGYPGYSGYGYAFDAFDPWGQGTLVTVSS
VL: EIVMTQSPSTLSASVGDRVIITCQSSKSVYNDNWLSWYQQKPGKAPKLLIYGASTLHSGVPSRFSGSGSGAEFTLTISSLQPDDFATYYCAGGYSSSSDNGFGQGTKLTVL
notes: MYT9792 variant, His at VL 57 (L2 06)
B10: MYT11093 (antibody, V domains shown)
VH: EVQLVESGGGLVQPGGSLRLSCTASGLSLSSYWMSWVRQAPGKGLEWVGVISAGGNTYYANWAKGRFTISRDTSKNTVYLQMNSLRAEDTAVYFCARGDDGYTNAAYVSNLWGQGTLVTVSS
VL: EIVMTQSPSTLSASVGDRVIITCQASQSISSWLSWYQQKPGKAPKLLIYKASTLASGVPSRFSGSGSGAEFTLTISSLQPDDFATYYCQSYHDSTTIAFGQGTKLTVL
notes: MYT9361 LC variant

Target: T1, Human PTK7 Protein, His Tag, Acro …
Test: BLI, anti-human Fc capture, 50 nM PTK7; 1 = pH dependent binding relative to parent

Binding result, binds:
B1, B2, B3, B4, B5, B6, B7, B8, B9

Target: T2, Human PTK7 Protein, His Tag (Acro …)
Test: BLI (Octet), antibody on anti-human Fc sensor, 50 nM PTK7; grade 1 = pH dependent binding relative to parent

Binding result, binds:
B10
